Experimental data: the supplement of paper PMC9732359
± gives the uncertainty stated by the source.

Assay: protein stability index of a GFP-peptide fusion (yeast GPS) (PSI 1-4); higher = more stable; sorted into four equal gates, so the index is relative within each strain
How it was run: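 Plasmids in a pooled yeast library fused tiled 17-residue yeast protein peptides downstream of GFP and also expressed Cherry. Mid-log cultures grown without leucine were sorted into four equal gates by GFP/Cherry fluorescence ratio. Each gate's plasmids were PCR-amplified and Illumina-sequenced, and reads were matched to strains by barcodes. The protein stability index is derived by multiplying each gate's read frequency by its gate number and summing the results.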

| Sequence | protein stability index (doa10∆) | protein stability index (pdr5∆) | protein stability index (san1∆) | protein stability index (ubr1∆) |
| --- | --- | --- | --- | --- |
| GNPGRIRVLFKENGQLI [SEC65] | 2.38 ± 0.055 | 2.24 ± 0.072 | 2.33 ± 0.11 | 2.44 ± 0.059 |
| KPPSSAFNFSFNTSRNV [YAR002W/NUP60] | 3.2 ± 0.042 | 3.18 ± 0.056 | 3.26 ± 0.045 | 3.05 ± 0.04 |
| CKRELAFVKQKNDSLEK [YIL149C/MLP2] | 3.26 ± 0.16 | 3.33 ± 0.17 |  | 3.43 ± 0.19 |
| TSDLLGSHLSETEFPPF [ECM29] | 2.94 ± 0.049 | 3.17 ± 0.062 | 3.17 ± 0.042 | 2.9 ± 0.058 |
| ENENILIKAKNFLVFQG [SMC1] | 1.22 ± 0.094 | 1.25 ± 0.12 | 1.96 ± 0.22 | 1.17 ± 0.11 |
| SDRREHDEKLSDELHNQ [LIN1] |  | 2.56 ± 0.18 | 3.19 ± 0.16 | 2.89 ± 0.16 |
| NEESTNERLEINQEKPV [SIR4] | 3.31 ± 0.18 | 3.32 ± 0.13 | 3.37 ± 0.092 | 3.36 ± 0.1 |
| YRSCETQDESEIKDAET [SMC4] | 3.77 ± 0.25 |  | 3.31 ± 0.16 |  |
| IIFNYVPGPGTKLIQYE [CSL4] |  | 2.99 ± 0.1 |  | 2.84 ± 0.098 |
| VSGNNASDEPSRKKNRR [SSN3] | 2.67 ± 0.1 | 3.01 ± 0.11 | 2.78 ± 0.14 | 2.91 ± 0.096 |
| EVEEDDEDDDQPMISPD [SWI3] | 3.21 ± 0.099 | 3.45 ± 0.056 | 3.33 ± 0.046 | 3.15 ± 0.06 |
| ATPQDAQFYLGKRIAYV [RPL33A] | 2.29 ± 0.082 | 2.66 ± 0.07 | 2.57 ± 0.074 | 2.7 ± 0.075 |
| DELVKLLLDNGFNMKKI [SRP68] |  |  | 2.98 ± 0.24 | 3.52 ± 0.13 |
| MKAVRKVAEVKKLEGTI [RPT4] | 3.15 ± 0.093 | 3.2 ± 0.1 | 3.16 ± 0.073 | 3.56 ± 0.071 |
| EDKQNIEINEDNSQDDQ [RRI2] | 3.44 ± 0.073 | 3.25 ± 0.066 | 3.23 ± 0.039 | 3.23 ± 0.04 |
| LRDDTLPKAWISLAVEG [COR1] | 2.55 ± 0.059 | 1.9 ± 0.08 | 1.78 ± 0.12 | 1.44 ± 0.037 |
| DEEMAVLTRMDEDRSKK [SNF2] | 3.17 ± 0.071 | 2.66 ± 0.083 | 2.42 ± 0.092 | 2.57 ± 0.072 |
| VINKLDRLILDLKLPPM [SNU114] | 2.05 ± 0.12 | 1.31 ± 0.12 | 1.06 ± 0.23 | 2.14 ± 0.1 |
| SSFSKKTLTEEVTKSSH [YIL149C/MLP2] | 2.69 ± 0.054 | 2.88 ± 0.058 | 2.77 ± 0.071 | 3.09 ± 0.048 |
| RVSKDKKSGSLTFNSKN [FAS2] | 3.34 ± 0.084 | 3.26 ± 0.072 | 3.23 ± 0.092 | 3.18 ± 0.074 |
| LSMNIAPRLRLEDIFQQ [RET1] | 2.06 ± 0.05 | 1.92 ± 0.038 | 1.98 ± 0.057 | 2.01 ± 0.037 |
| LTSFAEENNYQYGYSGS [SNF6] | 2.08 ± 0.064 | 2.22 ± 0.093 | 2.74 ± 0.11 | 2.48 ± 0.066 |
| ILGMLSLADNEIALKGL [YCS4] | 2.42 ± 0.053 | 2.08 ± 0.068 | 2.11 ± 0.089 | 2.25 ± 0.056 |
| LELQVAKTFIDLESSSP [RPS7B] | 3.17 ± 0.071 | 3.2 ± 0.063 | 2.96 ± 0.11 | 3.11 ± 0.064 |
| DPNLELDQVGVPKSIAK [RPO21] | 3.48 ± 0.23 | 3.18 ± 0.14 | 2.44 ± 0.25 | 3.11 ± 0.16 |
| VVLRLYLKDNITLLTRQ [GRR1] | 1.88 ± 0.057 | 1.75 ± 0.084 | 1.34 ± 0.11 | 1.98 ± 0.067 |
| RRSLKKQGRIKNATEEL [CSN12] | 3.2 ± 0.098 | 3.56 ± 0.083 | 3.37 ± 0.086 | 3.57 ± 0.066 |

| Sequence | protein stability index (doa10∆) | protein stability index (pdr5∆) | protein stability index (san1∆) | protein stability index (ubr1∆) |
| --- | --- | --- | --- | --- |
| SAAASESDVAKQLASFG [RPL16B] | 2.76 ± 0.048 | 2.83 ± 0.042 | 2.44 ± 0.057 | 2.42 ± 0.027 |
| RYLDNLKQEIDRGLSIK [SNU114] | 3.02 ± 0.15 | 2.9 ± 0.17 | 3.4 ± 0.18 | 2.97 ± 0.082 |
| PKQSDEYLKRVSVPVSG [SIR3] | 3.13 ± 0.086 | 2.55 ± 0.089 | 2.81 ± 0.096 | 2.72 ± 0.14 |
| SAAGMTAAIDSVVSQIE [FAS1] | 3.49 ± 0.23 | 3.15 ± 0.11 | 3.04 ± 0.24 | 2.81 ± 0.11 |
| QLNCIDTQFTKLLDDNP [SRB8] | 2.44 ± 0.074 | 2.7 ± 0.068 | 2.57 ± 0.065 | 2.9 ± 0.048 |
| GIFIKILNDSLIYHLKD [IRR1] | 1.54 ± 0.045 | 1.31 ± 0.048 | 1.69 ± 0.068 | 1.75 ± 0.033 |
| STSFSFNAPATGNGTTT [YOR098C/NUP1] | 2.73 ± 0.042 | 2.97 ± 0.037 | 3.03 ± 0.033 | 3.005 ± 0.028 |
| RYEEFADKVKLGRVRNH [RPC40] | 2.93 ± 0.064 | 2.99 ± 0.074 | 3 ± 0.068 | 2.96 ± 0.056 |
| ELSVVLSGIIQDIYYLA [RRI2] | 2.32 ± 0.12 | 2.24 ± 0.14 | 2.02 ± 0.13 | 2.6 ± 0.092 |
| ETPNQDATYDSALELVG [RPN6] | 2.62 ± 0.088 | 2.86 ± 0.072 | 2.61 ± 0.081 | 2.6 ± 0.1 |
| IPYAAKLLFQELLSMNI [RET1] | 1.55 ± 0.1 | 1.46 ± 0.084 | 1.31 ± 0.16 | 1.35 ± 0.056 |
| MLQKKLVEVEDEKIEAI [SRB7] | 3 ± 0.11 | 3.37 ± 0.1 | 3.16 ± 0.082 | 3.39 ± 0.086 |
| PGSVNSAAKYKDMKLLR [NUT1] | 2.89 ± 0.11 | 2.87 ± 0.12 | 2.73 ± 0.13 | 2.96 ± 0.085 |
| APEIPEDLYYLIKKAVS [RPS13] | 2.94 ± 0.081 | 2.92 ± 0.096 | 3.07 ± 0.079 | 2.69 ± 0.13 |
| IEAIDEYNKPNSEKFVF [ISW2] | 2.6 ± 0.1 | 2.76 ± 0.075 | 3.01 ± 0.092 | 3.15 ± 0.075 |
| LGIKKEKRIQYAKDILQ [RPB2] | 2.01 ± 0.059 | 2.12 ± 0.061 | 1.64 ± 0.094 | 1.99 ± 0.041 |
| YKTSKAAQDVWNRADNH [FAS1] | 2.96 ± 0.21 | 2.98 ± 0.17 | 1.71 ± 0.29 |  |
| ERTKLQEHTIFTQLKKN [SNU114] | 1.46 ± 0.057 | 2 ± 0.056 | 1.97 ± 0.084 | 1.58 ± 0.039 |
| VVRIKGINKIPPKPRKV [RPL7A] | 1.94 ± 0.043 | 2.21 ± 0.055 | 2.57 ± 0.063 | 2.44 ± 0.047 |
| GSNKAQISIIDIWSISK [YML031W/NDC1] | 2.55 ± 0.056 | 2.76 ± 0.054 | 2.88 ± 0.054 | 2.97 ± 0.048 |
| EERMGQIENLNEVCLEK [SMC4] | 3.48 ± 0.28 |  | 2.47 ± 0.27 |  |
| NDEVNEDEEDDNISSFH [YCG1] | 3.18 ± 0.12 | 3.28 ± 0.12 | 3.31 ± 0.074 | 3.33 ± 0.12 |
| VFGFRANKMRQDRLSDL [SMC4] |  |  |  | 2.74 ± 0.081 |
| AEFKKRKIEAETRNGKV [YCS4] | 2.82 ± 0.1 | 3.18 ± 0.072 | 3.18 ± 0.1 | 3.13 ± 0.094 |
| LMLEDAVTEREVLVTPG [MCD1] | 1.94 ± 0.2 |  | 2.16 ± 0.13 | 2.18 ± 0.27 |
| MSGSLSRGNGGKKVLNK [POP1] | 1.34 ± 0.15 | 2.48 ± 0.11 | 1.32 ± 0.22 | 2.97 ± 0.11 |
